Experimental data: US20150260724A1

Biological target: endogenous Fc epsilon receptor I (the IgE receptor) of RBL-2H3 cells (rat) (UniProt P12371)
Assay: cell-based or functional assay

Chain of UniProt P12371 (P12371 24-245): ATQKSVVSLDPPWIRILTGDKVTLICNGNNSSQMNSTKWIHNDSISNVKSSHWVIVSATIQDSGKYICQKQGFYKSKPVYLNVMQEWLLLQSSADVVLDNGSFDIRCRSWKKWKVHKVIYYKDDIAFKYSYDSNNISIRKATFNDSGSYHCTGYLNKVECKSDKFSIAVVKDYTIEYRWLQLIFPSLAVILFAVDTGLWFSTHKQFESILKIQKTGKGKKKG

mouse IgE monoclonal antibody against trinitrophenyl hapten, purified from IgELb4 hybridoma (ATCC TIB-141)
FLUORESCENCE (IgE + TNP-BSA, specific exocytosis); 1B7-HEXB clone, HEXB substrate 4MU-NGlc, 30 min: 28600
FLUORESCENCE (IgE + TNP-BSA, specific exocytosis); 1C4-HEXB clone, HEXB substrate 4MU-NGlc, 30 min: 39200
FLUORESCENCE (IgE + TNP-BSA, specific exocytosis); 1F10-HEXB clone, HEXB substrate 4MU-NGlc, 30 min: 17400
FLUORESCENCE (IgE + TNP-BSA, specific exocytosis); 2D1-SEAP clone, phosphatase substrate fluorescein diphosphate, 30 min: 62900
FLUORESCENCE (IgE + TNP-BSA, specific exocytosis); RBL2H3-HEXB (whole stable population), HEXB substrate 4MU-NGlc, 30 min: 14100
FLUORESCENCE (IgE + TNP-BSA, specific exocytosis); RBL2H3 cells, HEXB substrate 4MU-NGlc, 30 min: 6420
FLUORESCENCE (IgE + TNP-BSA, specific exocytosis); RBL2H3 cells, phosphatase substrate fluorescein diphosphate, 30 min: 29900
LU… (IgE + TNP-BSA, specific exocytosis); supernatant of 12.500 GZB-GLuc cells, coelenterazine: 997
LU… (IgE + TNP-BSA, specific exocytosis); supernatant of 25.000 GZB-GLuc cells, coelenterazine: 3780
LU… (IgE + TNP-BSA, specific exocytosis); supernatant of 50.000 GZB-GLuc cells, coelenterazine: 4710
LU… (IgE + TNP-BSA, specific exocytosis); supernatant of 100.000 GZB-GLuc cells, coelenterazine: 6280
